One block for each molecule: values may come before it.
Experiments:
[1] = target: VEGF-DΔNΔC (human VEGF-D residues 93 to 201, FLAG-tagged at the N-terminus) (human) (UniProt O43915); assay: SPR (BIAcore 3000), antibody immobilized, human VEGF-DΔNΔC flowed at 41-689 nM, 1:1 Langmuir model
[2] = target: VEGF-DΔNΔC (human VEGF-D residues 93 to 201, FLAG-tagged at the N-terminus) (human) (UniProt O43915); assay: cell-based or functional assay
[3] = target: T1, chimeric protein consisting of the extracellular domain of human VEGFR-1 and the Fc portion of human IgG (human, UniProt P17948 27-758); assay: plate receptor-binding assay, VEGFR-1/Ig coated, detection with biotinylated M2
T1 construct: extracellular domain; also called VEGFR-1/Ig; not shown: Fc portion of human IgG
T1 sequence (P17948 27-758, change not shown): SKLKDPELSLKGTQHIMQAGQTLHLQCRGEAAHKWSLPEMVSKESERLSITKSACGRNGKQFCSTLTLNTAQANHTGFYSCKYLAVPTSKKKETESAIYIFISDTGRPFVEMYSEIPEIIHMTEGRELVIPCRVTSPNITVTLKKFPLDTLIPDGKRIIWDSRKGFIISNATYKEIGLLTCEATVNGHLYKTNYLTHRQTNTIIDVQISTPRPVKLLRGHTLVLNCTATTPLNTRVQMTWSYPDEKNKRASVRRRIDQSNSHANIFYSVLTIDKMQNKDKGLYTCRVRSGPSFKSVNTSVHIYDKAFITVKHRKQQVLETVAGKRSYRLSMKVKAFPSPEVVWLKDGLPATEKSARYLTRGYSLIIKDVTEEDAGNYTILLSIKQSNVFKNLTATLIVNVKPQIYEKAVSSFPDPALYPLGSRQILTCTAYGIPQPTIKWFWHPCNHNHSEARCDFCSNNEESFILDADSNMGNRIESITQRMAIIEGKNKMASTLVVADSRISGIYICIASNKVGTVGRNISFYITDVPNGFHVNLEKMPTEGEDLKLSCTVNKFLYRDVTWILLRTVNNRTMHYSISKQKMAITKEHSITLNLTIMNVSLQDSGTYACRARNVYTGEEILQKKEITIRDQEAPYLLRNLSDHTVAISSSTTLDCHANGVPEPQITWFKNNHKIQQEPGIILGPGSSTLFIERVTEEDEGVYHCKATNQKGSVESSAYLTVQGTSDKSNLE

Kd [1]: 57.1 nM | koff [1]: 0.00445 s⁻¹ | kon [1]: 78000 M⁻¹ s⁻¹ | response of Ba/F3-NYK-EpoR cells to VEGF-D?N?C (3H-thymidine incorporation) [2]: 80 µg/mL
Molecule: monoclonal antibody 4E10

B1: VEGF-DΔNΔC (human VEGF-D residues 93 to 201, FLAG-tagged at the N-terminus) (ligand)
chain: FYDIETLKVIDEEWQRTQCSPRETCVEVASELGKSTNTFFKPPCVNVFRCGGCCNEESLICMNTSTSYISKQLFEISVPLTSVPELVPVKVANHTGCKCLPTAPRHPYS
notes: also called VEGF-D?N?C; human VEGF-D?N?C; not shown: FLAG octapeptide (Sigma) at the N-terminus; any vector-de
binding result [3]: no binding (tested: 7.3 µg/ml VEGF-DΔNΔC)

Source: US6383484
